{
  "source": "IntAct's records for PubMed 25350732",
  "parents": {"B1": {"name": "Probable peptidoglycan glycosyltransferase FtsW (Caulobacter crescentus), B8H092 (parent)", "chain": "MASNATHAFARTDRTALGLWWWTTDRWLLGATALLVTLGMLLSFASSPAAAQRIGIDDQFHFALRMCFFATASSVLMLITSMLSPRDIRRAAFFIYLGAIAVMIALPFIGHNAKGATRWLQFAGFTLQPSEFMKPALIVLVSWMFAEGQKGEGVPGVSIAFLLYFIAVALLLIQPDVGQTVLITIAFGAAFWMAGVPISWIMGLGGVALAGLGSTYFLFDHVHARVQKFLSPDQADTHQITRAAEAIRAGGLFGRGPGEGVMKRHVPDLHTDFIYSVAAEEYGLIFSWSLIGLFAFVVVRGLYKAMKLNDPFEQVAAAGLFVLVGQQALINIAVNLNMIPTKGMTLPFISYGGSSMLAMGLTLGMALALLRKRPGAYGASGEFGFGRADA", "partner": "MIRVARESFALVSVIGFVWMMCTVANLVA"}},
  "data": [
    {"variants_of": "B1", "conditions": "with sida_cauvn sidA", "values": [
      {"variant": "A31K", "effect of a mutation on the interaction": "disrupting interaction strength"}
    ]}
  ]
}
